Source: KR20160003317A (dated 2016)

B1: SC06-429 (scFv)
scFv: QVQLVQSGAEVKNPGESLKISCKGSGYTFTSYWIGWVRQMPGKGLEWMGSIYPGDSDTRYSPSFQGQVTISVDKSISTAYLQWSSLKASDTAMYYCARQYRAGSTTRFDPWGQGTLVTVSSGTGGSGGTGSGTGGSTDVVMTQSPLSLPVTPGEPASISCRSSQSLRHRNGNNYLDWYLQKPGQSPQLLIYLGSNRASGVPDRFSGSGSGTDFTLKISRVEAEDVGIYYCMQALQTPLTFGGGTKVEIK
notes: single-chain phage antibody: the scFv stood on phage in the ELISA
B2: SC06-432 (scFv)
scFv: QLQLQESGPGLVKPSQTLSLTCTVSGGSISSGGYYWSWIRQHPGKGLEWIGYIYYSGSTYYNPSLKSRVTISVDTSKNQFSLKLSSVTAADTAVYYCARERILDRMNDYWGQGTLVTVSSGTGGSGGTGSGTGGSTQSVVTQPPSVSGAPGQRVTISCTGSSSNIGAGYDVHWYQQLPGTAPKLLIYGNSNRPSGVPDRFSGSKSGTSASLAITGLQAEDEADYYCQSSDSSLNILFGGGTKLTVL
notes: as for B1
B3: SC05-179 (scFv)
scFv: EVQLVESGGGLVKPGGSLGLSCAASGFFFSDYSMSWIRQAPGKGLEWLSNISGSGHSTKYAESMRGRITISRDNAKKSLSLQLNSLRAEDTAVYFCVRGGGYRMDVWGQGTTVTVSSGTGGSGGTGSGTGGSTQSALTQPRSVPGSPGQSVTISCTGTSSDVGGYNYVSWYQQHPGKAPKLMIYDVSKRPSGVPDRFSGSKSGNTASLTVSGLQAEDEADYYCSSYAGSNNFVVFGGGTKLTVL
notes: as for B1
B4: SC05-187 (scFv)
scFv: EVQLVQSGAEVKKPGESLKISCKGSGYSFTKYWIGWVRQMPGKGLEWMGIIYPGDSDTRYSPSFQGQVTISADKSISTAYLQWSSLKASDTAMYYCARGSGIATGNSFDSWGQGTLVTVSSGTGGSGGTGSGTGGSTQTVVTQEPSLTVSPGGTVTLTCASSTGAVTSGYYPNWFQQKPGQAPRALIYSTSKKHSWTPARFSGSLLGGRAALTLSGAQPEDEADYYCLLSYGGARVFGGGTKLTVL
notes: as for B1
B5: SC06-016 (scFv)
scFv: QVQLVQSGPEVKKPGASVTVSCKASGYSFSSYGISWVRQAPGQGLEWMGRIIPVGGNTLYSQMFQGRVTMTSDTSTSTVYLELSSLRSEDTAVYFCARDGGRWQFDYWGQGTLVTVSSGTGGSGGTGSGTGGSTDIQLTQSPSSVSASVGDRVTITCRASQGISNWLAWYQQKPGKAPELLIYAASSLQSGVPPRFSGSASGTDFTLTISSLQPEDFATYYCQQSKNFPYTFGQGTKVEIK
notes: as for B1
B6: SC06-043 (scFv)
scFv: EVQLVESGAEVKKPGESLKISCKGSGYSFTSYWIGWVRQMPGKGLEWMGIIYPGDSDTRYSPSFQGQVTISADKSISTAYLQWSSLKASDTAMYYCARRYCSGGTCSDGFDIWGQGTMVTVSSGTGGSGGTGSGTGGSTQSALTQPPSASGSPGQSVTISCTGTSSDVGGYNYVSWYQQHPGKAPKLMIYEVSKRPSGVPDRFSGSKSGNTASLTVSGLQAEDEADYYCSSYAGSNNLVFGGGTKLTVL
notes: as for B1
B7: SC06-049 (scFv)
scFv: QVQLVQSGAEVKKPGESLKISCKGSGYSFTSYWIGWVRQMPGKGLEWMGIIYPGDSDTRYSPSFQGQVTISADKSIGTAYLQWSSLKASDTAMYYCARLFRVRGGHFDSWGQGTLVTVSSGTGGSGGTGSGTGGSTQSALTQPASVSGSPGQSITISCTGTNSDVGGYNYVSWYQQHPGKAPKLLIYDVTNRPSGVSNRFSASKSGNTASLTISGLQAEDEADYYCSSFTSSSTRVFGGGTKLTVL
notes: as for B1
B8: SC06-050 (scFv)
scFv: EVQLVESGPEVKKPGASVKVSCEASGYNLDNYGITWVRQAPGQGLEWLGWISAYNAKTEYGQRLQGRVTMTTDTATSTAYLELRSLRSDDTAVYYCARVLGYRGGWYDEGDAFDVWGQGTMVTVSSGTGGSGGTGSGTGGSTDIQLTQSPSFLSASVGDRVTITCRASQGIRSHLAWYQQKAGKAPKLLIYAASTLQSGVPSRFSGSGSGTEFTLTISSLQPDDFAAYYCQQLNTYPITFGQGTRLEIK
notes: single-chain phage antibody: the scFv stood on phage in the ELISA; also called SC05-050

Molecular target: T1, 송아지 혈청 알부민(BSA) (bovine (printed: 송아지 혈청 알부민), UniProt P02769 25-607)
T1 construct: also called bovine serum albumin
T1 sequence (P02769 25-607 limits assumed): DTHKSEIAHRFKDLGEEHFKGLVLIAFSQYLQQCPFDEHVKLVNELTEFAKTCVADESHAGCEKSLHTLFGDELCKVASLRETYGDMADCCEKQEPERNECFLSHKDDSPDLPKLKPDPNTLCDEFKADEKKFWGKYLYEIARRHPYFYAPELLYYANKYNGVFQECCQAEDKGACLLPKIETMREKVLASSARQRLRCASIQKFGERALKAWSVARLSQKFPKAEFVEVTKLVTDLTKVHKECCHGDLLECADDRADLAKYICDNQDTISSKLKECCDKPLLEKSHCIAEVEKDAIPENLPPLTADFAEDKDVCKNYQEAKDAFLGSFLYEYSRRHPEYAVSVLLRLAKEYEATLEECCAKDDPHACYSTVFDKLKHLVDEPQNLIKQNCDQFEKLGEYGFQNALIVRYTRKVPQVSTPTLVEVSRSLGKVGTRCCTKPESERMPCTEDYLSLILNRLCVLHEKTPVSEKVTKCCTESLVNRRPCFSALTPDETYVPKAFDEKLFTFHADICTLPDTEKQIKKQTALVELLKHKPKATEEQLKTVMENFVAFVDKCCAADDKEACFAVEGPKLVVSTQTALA
Experiment: phage ELISA, 1% BSA coated, anti-M13-peroxidase, absorbance 492 nm

Binder | binding result
B1 | no binding
B2 | no binding
B3 | no binding
B4 | no binding
B5 | no binding
B6 | no binding
B7 | no binding
B8 | no binding
